Assay results reported in patent US20180022805A1.

Target: pre-B cell receptor (pre-BCR) on the surface of live BCP-ALL cells (human) (UniProt P15814)
Assay: single particle tracking with hidden Markov model (Viterbi plot), one receptor pair on 697 cells

Sequence of pre-B cell receptor (pre-BCR) on the surface of live BCP-ALL cells (chain): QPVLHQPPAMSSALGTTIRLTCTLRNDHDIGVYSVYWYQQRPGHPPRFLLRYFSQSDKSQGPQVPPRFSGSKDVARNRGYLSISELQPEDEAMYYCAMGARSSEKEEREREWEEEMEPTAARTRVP
Sequence of pre-B cell receptor (pre-BCR) on the surface of live BCP-ALL cells (P15814 38-213): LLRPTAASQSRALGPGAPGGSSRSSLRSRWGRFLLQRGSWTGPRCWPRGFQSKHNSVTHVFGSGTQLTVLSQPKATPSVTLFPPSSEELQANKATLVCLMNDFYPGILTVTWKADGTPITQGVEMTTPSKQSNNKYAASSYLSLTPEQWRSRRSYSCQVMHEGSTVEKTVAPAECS
Sequence of pre-B cell receptor (pre-BCR) on the surface of live BCP-ALL cells (P11912 33-226): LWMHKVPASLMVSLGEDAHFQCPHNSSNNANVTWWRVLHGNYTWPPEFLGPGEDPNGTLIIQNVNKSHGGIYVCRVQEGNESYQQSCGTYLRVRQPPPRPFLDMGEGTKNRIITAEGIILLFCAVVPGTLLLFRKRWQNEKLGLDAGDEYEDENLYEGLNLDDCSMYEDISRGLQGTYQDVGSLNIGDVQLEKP
Sequence of pre-B cell receptor (pre-BCR) on the surface of live BCP-ALL cells (P40259 29-229): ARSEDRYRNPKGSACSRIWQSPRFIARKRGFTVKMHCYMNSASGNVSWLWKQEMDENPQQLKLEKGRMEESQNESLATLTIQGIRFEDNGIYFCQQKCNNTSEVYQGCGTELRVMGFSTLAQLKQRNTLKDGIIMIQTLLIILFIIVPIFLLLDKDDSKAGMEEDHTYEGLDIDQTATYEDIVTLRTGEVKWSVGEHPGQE

pre-B cell receptor (pre-BCR) on the surface of live BCP-ALL cells (from UniProt P15814 38-213; P11912 33-226; P40259 29-229)
homo-interaction lifetime: < 3 s
